Results: the nanobody polyreactivity screen of Harvey et al. (2022)

Assay: yeast display, Sf9 membrane polyspecificity reagent, FACS + sequencing; frameworks hold sequencing errors
In short: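 Galactose-induced (36–48 hours) yeast carrying a synthetic nanobody display library were exposed to 10% biotinylated, detergent-solubilized Sf9 membrane reagent at 4 °C for 1 hour. FACS followed streptavidin microbead enrichment, using low and high (top ~1%) gates for expression (anti-HA) and reagent binding (streptavidin). Colony PCR, MiSeq 2 × 250 sequencing and CDR-length filtering followed. Labels for polyreactivity reflect the gate of origin.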
In the case of “QVQLVESGGGLVQAGGSLRLSCAASGSTFHLYAMGWYRQAPGKERELVAAITRGGGSTYYADSVKGRFTISRDYAKNTVYLQMNSLKPEDTAVYYCNARGPSSYRYEYWGQGTQVTVSS”, the “polyreactivity (PSR sort gate)” value is reported as “high polyreactivity”. For “QVQLVESGGGLVQAGGSLRLSCAASGSTFHPYAMGRYRQAPGKERELVAAITWRVGSTYYADSVKGRFTISRDNAKNSVYLQMNSLKPEDTAVYYCAVSYLSTLGRSRYDYWGQGTQVTVSS”, the “polyreactivity (PSR sort gate)” value was “low polyreactivity”. For “QVQLVESGGGLVQAGGSLRLSCAASGSTFHRYTMGWYRQAPGKERELVAAISSGVNTDYADSVKGRFTISRDNAKNTVYLQMNSLKPEDTEVYYCNTSFGSPQVVRYEYWGQGTQVTVSS”, the “polyreactivity (PSR sort gate)” value was “low polyreactivity”. With “QVQLVESGGGLVQAGGSLRLSCAASGSTFHSNAMGWYRQAPGKERELVAAISQGGGRTYYADSVKGRFSISRDNAKNTVYLQMNSLKPEDTAVYYCNRRTRGLIDGGMDYWGQGTQGTVSS” the “polyreactivity (PSR sort gate)” value was “low polyreactivity”. For “QVQLVESGGGLVQAGGSLRLSCAASGSTFHYYAMGWYRQAPGKERELVAAINSGARTYYADSVKGRFTISRDNAKNTVYLQMNSLKTEDTAVYYCNKAFQWSGGQVSYDYWGQGTQVTVSS”, the “polyreactivity (PSR sort gate)” value was “low polyreactivity”. With “QVQLVESGGGLVQAGGSLRLSCAASGSTFHYYARGWYSQAPGKDRELVAAIRTSGGSTYYADSVKGRFTISRDNEKNTVYLLMNCLKPEDTAVYYCNRVLGYPYGVDYWGQGTQVTVSS” the “polyreactivity (PSR sort gate)” value was “high polyreactivity”. For “QVQLVESGGGLVQAGGSLRLSCAASGSTFIDYAMGWYRQAPGKERELVAAITNGGNTKYADSVKGRFTISRDNAKNTVYLLMISLNPEDTAVYYCAREPSIFTPSYDYWGQGTQVTVSS”, the “polyreactivity (PSR sort gate)” value was “low polyreactivity”. For “QVQLVESGGGLVQAGGSLRLSCAASGSTFIGFAMGWYRQAPGKERELVAAITSDGRTNYADSVKGRFTISRDNAKNTVYLQMNSLKPEDTAVYYCAAQILGTFYEYDYWGQGTQVTVSS”, the “polyreactivity (PSR sort gate)” value was “low polyreactivity”. For “QVQLVESGGGLVQAGGSLRLSCAASGSTFIGNAMGWYRQAPGKERELVAAITRSGGSTFYADSVKGRFTISRDNAKNTVYLQMNSLKPEDTAVYYCAAKGNPYRVPGSSYPKVNYWGQGTQVTVSS”, the “polyreactivity (PSR sort gate)” value was “high polyreactivity”. For “QVQLVESGGGLVQAGGSLRLSCAASGSTFIGSDMGWYRQAPGKERELVAAISYSDGTYYADSVKGRFTISRDNAKNTVYLQMNSLKPEDTAVYYCATSYRDIGSHVGYWGQGTQVTVSS”, the “polyreactivity (PSR sort gate)” value was “low polyreactivity”. With “QVQLVESGGGLVQAGGSLRLSCAASGSTFIGYAMGWYRHAPGKERELVAGINWSSGSTNYADSVKGRFTISRDNAKNTVYLQMNSLIPEDTAVYYCAADLYWYAHREEYDYWGQGTQVTVSS” the “polyreactivity (PSR sort gate)” value was “high polyreactivity”. With “QVQLVESGGGLVQAGGSLRLSCAASGSTFILNAMGSYRQAPGKERELVAAISLSGGSTYYADSVKGRFTISRDNAKNTVYLQMNSQKPEDTAVYYCAAEQWYDNYLEYDYWGQGTQVTLSS” the “polyreactivity (PSR sort gate)” value was “high polyreactivity”. In the case of “QVQLVESGGGLVQAGGSLRLSCAASGSTFILYAMGWYRHAPGKERELVAAISRSTGITYYADSVKGRFTISRDNAKNTVYLQMNSLKPEDTAGYYCAADAWGYNDYDASYSTGYEYWGQGTQVTVSS”, the “polyreactivity (PSR sort gate)” value is reported as “high polyreactivity”. In the case of “QVQLVESGGGLVQAGGSLRLSCAASGSTFILYAMGWYRQAPGKERELVAAISSDGSTYYADSVKGRFTISRDNAKNTVYLQMNSLKPEDTAVYYCAAYGYDADTGYDYWGLGTQVTVSS”, the “polyreactivity (PSR sort gate)” value is reported as “low polyreactivity”. With “QVQLVESGGGLVQAGGSLRLSCAASGSTFINYAKGWYRHAPGKERELVAAYADSVKGRFSISRDNAKNTVYLQMNSLKPEDTAVYYCAARGTIYVLGVPARPVPDGDYWGQGTQVTVSS” the “polyreactivity (PSR sort gate)” value was “low polyreactivity”. With “QVQLVESGGGLVQAGGSLRLSCAASGSTFINYAMGWYRQAPGKERELVATISSNGGSTYYADSVKGRFTISRDNAKNTVYLQMNRLKPEDTAVYYCAADGKQYGFYYWGQGTQVTVSS” the “polyreactivity (PSR sort gate)” value was “low polyreactivity”. In the case of “QVQLVESGGGLVQAGGSLRLSCAASGSTFIRNAMGWYRQAPGKERELVAAISGSGVSTRYADSVKGRFTISRDNAKNTVYLQMNSLKPEDTAVYYCAKRKQYPYTMGYWGQGTQVTVSS”, the “polyreactivity (PSR sort gate)” value is reported as “high polyreactivity”. In the case of “QVQLVESGGGLVQAGGSLRLSCAASGSTFISYAMGWSRQAPGKERELVAAISSSTGRTYYADSVKGRVTISRDNAKNTVYLQMNSLKPEDTAVYYCNAVHRYERDYWGQGTQVTVSS”, the “polyreactivity (PSR sort gate)” value is reported as “high polyreactivity”. For “QVQLVESGGGLVQAGGSLRLSCAASGSTFIVYAMGWYRQAPGKERELVAAITASGGSTYADSVKGRFTISRDNAKNTVYLQMNSLKPEDTAVYYCAARRWSRKYRKYDYWGQGTQVTVSS”, the “polyreactivity (PSR sort gate)” value was “high polyreactivity”. With “QVQLVESGGGLVQAGGSLRLSCAASGSTFIYNAMGWYRQAPGKERELVAGITGSGGSTYYADSVKGRFTISRDNAKNNVYLQMNSLKPEDTAVYYCAADRHIHYTDARMDYWGQGTQVTVSS” the “polyreactivity (PSR sort gate)” value was “low polyreactivity”. For “QVQLVESGGGLVQAGGSLRLSCAASGSTFKAYAMGWYRQAPGKERELVAAITNSDGDTYYADSVKGRFTISRDNAKNTVYLQMNSLKPEDTAVYYCIADTGKWGGNGWYEFDYWGQGTQVTVSS”, the “polyreactivity (PSR sort gate)” value was “low polyreactivity”. For “QVQLVESGGGLVQAGGSLRLSCAASGSTFKFNAMGWYRQAPGKETELVATITSRGSRTYYADSVKGRFTISRDNAKNTVYLQMNSLKPEDTAVYYCAARVFRPYGSLYDYWGQGTQVTVSS”, the “polyreactivity (PSR sort gate)” value was “high polyreactivity”. With “QVQLVESGGGLVQAGGSLRLSCAASGSTFKFYAMGWYRQAPGKERELVASITSSSGPTYYADSVKGRFTISRDNAKNTVYLQLNSLKPEDTAVDYCAKRPIRYYHLLRGNYWGQGTQVTVSS” the “polyreactivity (PSR sort gate)” value was “low polyreactivity”. In the case of “QVQLVESGGGLVQAGGSLRLSCAASGSTFKFYTMGWYRQAPGKERELVATIDWSGGSTYYADSVKGRFTISRDNAKNTVYLQMNSLKPEDTSVYYCAAYSRSRTTRLGKYYYWGQGTQVTVSS”, the “polyreactivity (PSR sort gate)” value is reported as “high polyreactivity”. With “QVQLVESGGGLVQAGGSLRLSCAASGSTFKGNAMGWYRQAPGKERELVAAITFSGGSTYYADSVKGRFTISRDNAKNTVYLQMNSLKPEDTAVYYCAKGEWVYWRPWYEYWGQGTQVTVSS” the “polyreactivity (PSR sort gate)” value was “low polyreactivity”. With “QVQLVESGGGLVQAGGSLRLSCAASGSTFKGYSMGWYRQAPGKERALVAAISRSGTRTYYADSVKGRFTISRDNAKNTVYLHMTILKPEVTAVYYCNKVTGFIAHDNEKGRDYWGQGTQVTVSS” the “polyreactivity (PSR sort gate)” value was “low polyreactivity”. With “QVQLVESGGGLVQAGGSLRLSCAASGSTFKGYTMGWYRQAPGKEREFVATITFSDGSTYYADCVKGRFTISRDNAKNTVYLQMNSLKPAVTAVYYCNVDSPIGYDYWGQGTQVTVSS” the “polyreactivity (PSR sort gate)” value was “low polyreactivity”. In the case of “QVQLVESGGGLVQAGGSLRLSCAASGSTFKINAMGWYRQAPGKERELVAAIRSRGGGTYYADSVKGRFTISRDNAKNTVYLQMNSLKPEDTAVYYCAATRRYHFDYWGQGTQVTVSS”, the “polyreactivity (PSR sort gate)” value is reported as “high polyreactivity”. For “QVQLVESGGGLVQAGGSLRLSCAASGSTFKIYAMGWYRQAPGKERELVARITGRGGSTYYADSVKGRFTISRDNAKNTVYLQMNSLKPEDTAVYYCAARVYTFYYDLHKRYYWGQGTQVNVSS”, the “polyreactivity (PSR sort gate)” value was “high polyreactivity”. For “QVQLVESGGGLVQAGGSLRLSCAASGSTFKKYAMGWYRQAPGKERELVAAITWTGGSTYYADSVKGRFTISRDNAKNTVYLQMNSLKPEDTAVYYCAAYKTYAVKYYWGQGTQVTVSS”, the “polyreactivity (PSR sort gate)” value was “high polyreactivity”. For “QVQLVESGGGLVQAGGSLRLSCAASGSTFKNNAMGWYRQEPGKEREFVASISKRGGSTYYADSVKGRFTISRDNAKNTVYLQMNSLKPEDTAVDYCAKTYWSYGWSHGDYGEFDYWGQGTQVTVSS”, the “polyreactivity (PSR sort gate)” value was “high polyreactivity”. In the case of “QVQLVESGGGLVQAGGSLRLSCAASGSTFKPNAMGWYRQAPGKERELVAGISGRGGSTNYADSVKGRFTISRDNAKNTVYLQMNRLKPEDTAVYYCAKDAYPLWLTRYNYWGQGTQVTVSS”, the “polyreactivity (PSR sort gate)” value is reported as “low polyreactivity”. With “QVQLVESGGGLVQAGGSLRLSCAASGSTFKPYAMGWYRQAPGKERELVAAITWSSGSTYYADSVKGRFTISRDNAKNTVYLQMNSLKPEDTAVYYCARDRYSVFEYDYWGQGTQVTVSS” the “polyreactivity (PSR sort gate)” value was “low polyreactivity”. In the case of “QVQLVESGGGLVQAGGSLRLSCAASGSTFKPYPMGWYRQAPGKERELVADITGGGSTNYADSVKGRFTNSRDNAKNTVYLEMNSLKPEDTGVYYCNATYLLKYRYYDSTRYDYWGQGTQVTVSS”, the “polyreactivity (PSR sort gate)” value is reported as “low polyreactivity”. In the case of “QVQLVESGGGLVQAGGSLRLSCAASGSTFKQYAMGWYRQAPGKERELVADINVRDGGTYYADSVKGRFTISRDNAKNTVYLQMNSLKPEDTAVYYCAKDYYACYWEMDYWGQGTQVTVSS”, the “polyreactivity (PSR sort gate)” value is reported as “low polyreactivity”. For “QVQLVESGGGLVQAGGSLRLSCAASGSTFKQYAMGWYSQAPGKERELVAAISLSGSRTYYADSVKVRFTISRDNAKNTVYLQMKSLIPVDTAVYYCAAELRSSAGWLYDYWGQGTQVTVSS”, the “polyreactivity (PSR sort gate)” value was “high polyreactivity”. In the case of “QVQLVESGGGLVQAGGSLRLSCAASGSTFKRNAMGWYRQAPGKERELVAAISWRGTSTYYADSVKGRFTISRDNAKNTVYLQMNSLKPEDTAVYYCAADRGSSVRYGYWGQGTQVTVSS”, the “polyreactivity (PSR sort gate)” value is reported as “high polyreactivity”. In the case of “QVQLVESGGGLVQAGGSLRLSCAASGSTFKRNVMGWYRQAPGKERELVAAISRSTTSTYYADSVKGRFTISRDNAKNTVYLQMNSLKPEDTAVYYCATPHRYRVDYWGQGTQVTVSS”, the “polyreactivity (PSR sort gate)” value is reported as “high polyreactivity”. For “QVQLVESGGGLVQAGGSLRLSCAASGSTFKRYAMGWYRQAPGKEMELVAAISTRGSTYYADSVKGRFTISRDNAKNTVYLQMNRLKPEETAVYYCNADVGAWAWYTRYDYWGQGTQVTVSS”, the “polyreactivity (PSR sort gate)” value was “low polyreactivity”. For “QVQLVESGGGLVQAGGSLRLSCAASGSTFKRYAMGWYRQAPGKERELVADISRGVRTYYADSVKGRFTISRDNAKNTVYLQMNSLKPEDTAVYYCATKYHRNTYEYEYWGQGTQVTVSS”, the “polyreactivity (PSR sort gate)” value was “high polyreactivity”. In the case of “QVQLVESGGGLVQAGGSLRLSCAASGSTFKRYAMGWYRQAPGKERELVASISSGGSTNYADSVKGRFTISRDNAKNTVYLQMNSLKPEDTAVYYCAVSYRSFRYYWERYYSWGQGTQVTVSS”, the “polyreactivity (PSR sort gate)” value is reported as “high polyreactivity”. In the case of “QVQLVESGGGLVQAGGSLRLSCAASGSTFKRYDMGGYRQAPGKECEFVAGISSRGSRTYYADSVTGRFTISRDNAKNSVYFKMNILKPEDSAVYYCAVSGNHVSPPYGFWGQGTQVNVSS”, the “polyreactivity (PSR sort gate)” value is reported as “high polyreactivity”. With “QVQLVESGGGLVQAGGSLRLSCAASGSTFKSYAMGWYRQAPGKERELVAAINWSGGSTYYADSVKGRFTISRDNAKNTVYLQMTSLKPEDTAVYYCNALYAVRSYDSWGQGTQVTVSS” the “polyreactivity (PSR sort gate)” value was “high polyreactivity”.
